The supplement of paper PMC10724198
± gives the standard deviation of the averaged measurements.

Tested on: Saccharomyces cerevisiae
Test: protein stability index of tFT-peptide fusion (C-terminal peptide) (PSI (0-1 scale)); higher = more stable (slower turnover)
Details: genetic background: wild type; temperature: 30 C
Experimental: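 Multiplexed protein stability (MPS) profiling in S. cerevisiae. Random 12-aa peptides (tFT-X12 library) are fused to the C-terminus of a sfGFP-mCherry tandem fluorescent timer, after mCherry and a GGGS linker. Cells are FACS-sorted into 8 mCherry/sfGFP bins and deep-sequenced. The protein stability index (PSI) is the read-weighted bin average, scaled from 0 (unstable) to 1 (stable). Only peptides with >10 reads are reported; cells were grown at 30 °C in SC-His with glucose.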
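Note: PSI is a weighted mean of sequencing reads over stability bins, variants kept only with over 10 reads, mCherry proximal and sfGFP distal, peptide attached via GGGS linker.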

Sequence	protein stability index
GYSFWSCVAFFS	0.628 ± 0.0068
GYSPLHPILLGL	0.577 ± 0.013
HAEREDTESQTR	0.714 ± 0.05
HAKVFLMGCSYV	0.692 ± 0.072
HALSVDPAFKQS	0.66 ± 0.05
HATPPPLPSPPL	0.71976 ± 0.0003
HCLLPLTTRRGR	0.7 ± 0.026
HDAKIGTSTCWV	0.654 ± 0.024
HDGPYPALLATK	0.606 ± 0.069
HDHRTLMRQPTR	0.697 ± 0.037
HDMTGARKTHIA	0.676 ± 0.023
HDRIHWDLDLSE	0.617 ± 0.041
HEGHVWGIRGTG	0.683 ± 0.11
HEKTGNNHKRGH	0.628 ± 0.19
HERPVVLYGCTS	0.637 ± 0.02
HFIDFVVVSFSI	0.548 ± 0.095
HFSLCSNRSNPP	0.646 ± 0.015
HFSTSFYSSAFR	0.631 ± 0.026
HGAEAWPDVGPG	0.639 ± 0.021
HGGEPHPSFGFS	0.697 ± 0.062
HGIGRDTSEHGR	0.645 ± 0.025
HGLGSWGTFLGV	0.655 ± 0.021
HGPGGFRAGTGE	0.724 ± 0.027
HGRSGGGKGAER	0.674 ± 0.038
HGSDLSILRIEI	0.722 ± 0.07

Sequence	protein stability index
HHCGGRVLGAGG	0.7073 ± 0.0056
HHPTTQRLSVIH	0.742 ± 0.042
HHRRRRTTDVSL	0.75 ± 0.049
HIEGRKHKDVAM	0.668 ± 0.062
HKVETHQIIQIK	0.726 ± 0.043
HLFAISGGKERI	0.6966 ± 0.0039
HLFVCGNGVSAT	0.684 ± 0.029
HLGHPSSRPSCL	0.72 ± 0.057
HLGQPRPSCPLF	0.662 ± 0.088
HLLLLDLTRPIL	0.745 ± 0.061
HLLRGSSPDRYV	0.737 ± 0.019
HLRIAHTPDSPR	0.703 ± 0.0082
HLSSPPSLLPPP	0.657 ± 0.05
HLSWFSPFFASG	0.772 ± 0.018
HLVPYVVKHLVP	0.6785 ± 0.0062
HLWAPRQNTIRY	0.649 ± 0.091
HMRPSTRLMPAG	0.593 ± 0.01
HNGYLKRIKISR	0.707 ± 0.085
HNSRTVPISVSV	0.528 ± 0.038
HNVLVYCGCALG	0.6032 ± 0.0036
HPAALTPVPALH	0.661 ± 0.036
HPFSLGSLVASW	0.6412 ± 0.0027
HPISLSYPSPFV	0.665 ± 0.13
HPPAFSAKTFPS	0.683 ± 0.043
HPPPPRLPPRPP	0.63 ± 0.02

Sequence	protein stability index
HPPRPPPRSPPP	0.656 ± 0.1
HPPSLPPLPPPL	0.727 ± 0.054
HPPSPPSRVSPS	0.594 ± 0.032
HPPTCTTVLPTL	0.579 ± 0.023
HPTDPPFRNTTA	0.6996 ± 0.0043
HPTLPSLQVSPS	0.689 ± 0.031
HQLSQYEGARTL	0.733 ± 0.064
HQRIKLMPEVWS	0.689 ± 0.056
HRAPACEHDIKK	0.705 ± 0.015
HRKVCARHNWEE	0.673 ± 0.046
HRLQGQGAWYVT	0.643 ± 0.061
HRPGYLTSSASD	0.65 ± 0.062
HRPPPPPSPSHL	0.686 ± 0.01
HRQAFSAVPCIH	0.588 ± 0.042
HRSHVRHSFPNP	0.703 ± 0.038
HRTSVRIPIPPI	0.683 ± 0.012
HRWCLADYVEVG	0.773 ± 0.063
HRWSRGIDATGV	0.665 ± 0.083
HSCPLLLAPPPS	0.608 ± 0.058
HSCYGHIRVSFC	0.705 ± 0.0098
HSGAPFPPDSPR	0.783 ± 0.16
HSINNVITNNTE	0.678 ± 0.017
HSSLHLTRALCL	0.677 ± 0.043
HSSRSPPPSPYA	0.709 ± 0.042
HSSSASPPISSF	0.657 ± 0.041

Sequence	protein stability index
HSTEKGIMLNEY	0.704 ± 0.19
HSTESHHQLDNQ	0.649 ± 0.026
HSTPPSPAPPTA	0.675 ± 0.062
HSVVANECHQGQ	0.766 ± 0.11
HTAITSGYSRGL	0.633 ± 0.049
HTGTCSVLPHTL	0.663 ± 0.052
HTLQDNHRLPRA	0.6058 ± 0.0029
HTPRLRRMRDYH	0.658 ± 0.087
HTRIGDGSRLLA	0.72666 ± 0.00065
HVHLHSTTAPPP	0.695 ± 0.015
HVTHPGCTLQLR	0.707 ± 0.071
HWLGCDESRGWV	0.668 ± 0.037
HYFRSIFLFVVR	0.506 ± 0.017
HYGQRKKEFRLT	0.73 ± 0.0075
HYWTTENDWPHG	0.705 ± 0.025
IADLGDLTKVTL	0.693 ± 0.019
IALACPGGSYIV	0.6739 ± 0.0024
IALTSVRIPSSP	0.678 ± 0.047
IARSVLRIGVWG	0.612 ± 0.045
IASASGAQAGAR	0.636 ± 0.017
ICAPSPSPAFTF	0.689 ± 0.0086
ICMGSLLYVGPC	0.5515 ± 0.0034
ICVYGGRKISPG	0.6877 ± 0.00097
IDLWGNGRCVEL	0.701 ± 0.048
IEKVKIMNKERN	0.692 ± 0.017

Sequence	protein stability index
IFFRARRLEAHT	0.608 ± 0.019
IFGMSIMLNRIT	0.541 ± 0.041
IFGVSRTGIRCT	0.56 ± 0.011
IFKNAWSSYRIE	0.714 ± 0.037
IFPRPHVDIPLL	0.922 ± 0.075
IFRSCCLLGLCL	0.591 ± 0.099
IFYCPPVPTFPL	0.697 ± 0.024
IGEGLLFWFGIR	0.66 ± 0.042
IGGAMLSPLKVR	0.55 ± 0.021
IGGDLGRDSTCL	0.592 ± 0.11
IGGGPLWLVNNM	0.6748 ± 0.0054
IGGYNRTFELMG	0.678 ± 0.032
IGRVSVWDQKVA	0.673 ± 0.054
IGSDFQLFLEGC	0.668 ± 0.044
IGSEKGKIGVGC	0.677 ± 0.067
IGTGHPRTGLSR	0.682 ± 0.031
IIFRLLLSRFFL	0.543 ± 0.022
IIRAGVPLSISE	0.652 ± 0.019
IIRKQQAKKVEL	0.681 ± 0.025
IIRSKGTKSMHK	0.691 ± 0.013
IIYKPEKMRPKS	0.7146 ± 0.0068
IKFMTTGVRTMG	0.662 ± 0.03
IKKKKKKIKRNN	0.654 ± 0.0099
IKKKKRRKEQEK	0.7477 ± 0.0035
IKKKTKQKQHEK	0.786 ± 0.3

Sequence	protein stability index
IKKRKQYCKRIK	0.6801 ± 0.0048
IKRIDQYEKQNK	0.659 ± 0.07
IKRIYQKKIERK	0.762 ± 0.067
ILDNWQFSYIKD	0.713 ± 0.051
ILDRRTKREDLK	0.667 ± 0.038
ILKQYLHRRFEF	0.709 ± 0.057
ILLFISGPPMSF	0.735 ± 0.062
ILRPAPVFPLDP	0.689 ± 0.0089
ILSCLLRSSFQC	0.606 ± 0.045
ILSSPGLLLFRL	0.5449 ± 0.005
ILWFYSDSPWLS	0.763 ± 0.11
IMDHKSNSDKWI	0.7193 ± 0.0011
IMKKKKNKARDI	0.75 ± 0.055
IMSFTLLAPGQM	0.692 ± 0.019
INHNKNKTIIAL	0.655 ± 0.0075
INRDKLNRRKKL	0.687 ± 0.038
INSKTRIQVTEN	0.73 ± 0.035
INSSPRSSTLLL	0.686 ± 0.034
INWNVMDRVTCN	0.633 ± 0.12
IPLLEALLQLAA	0.562 ± 0.014
IPLSFDRLLLID	0.63 ± 0.015
